Test results reported in patent US20050164945A1 (published 2005).
No end group written: not given here.

Biological target: T1, recombinant endotheliase 1 (human, UniProt Q9UL52 192-423, limits assumed)
T1 construct: also called ET1; rET1
T1 sequence: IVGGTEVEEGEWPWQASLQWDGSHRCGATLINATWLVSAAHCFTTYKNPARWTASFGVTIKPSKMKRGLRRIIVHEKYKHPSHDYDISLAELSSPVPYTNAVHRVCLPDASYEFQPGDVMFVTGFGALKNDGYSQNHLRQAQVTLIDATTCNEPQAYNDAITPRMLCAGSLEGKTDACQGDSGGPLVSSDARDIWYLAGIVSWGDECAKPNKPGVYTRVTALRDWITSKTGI
Experiment: inhibition of ET1 activity

B1: DX-1107 (peptide)
peptide: AGKWHCKGYAPDCQMWGT
modifications: not fully specified (bridges); cysteine pairing not given here
notes: synthetic peptide
Binder B1 has a Ki of 500 nM.
